Results as given in US20200087367A1 (ACCELERON PHARMA, published 2020).

Experiments:
hENG(26-437)-hFc = target: T1, hENG(26-437)-hFc (human, UniProt P17813 26-437); experiment: SPR kinetics; HEK293-cell-derived protein
T1 construct: HEK 293, purified; not shown: linker and human IgG1 Fc domain
T1 sequence: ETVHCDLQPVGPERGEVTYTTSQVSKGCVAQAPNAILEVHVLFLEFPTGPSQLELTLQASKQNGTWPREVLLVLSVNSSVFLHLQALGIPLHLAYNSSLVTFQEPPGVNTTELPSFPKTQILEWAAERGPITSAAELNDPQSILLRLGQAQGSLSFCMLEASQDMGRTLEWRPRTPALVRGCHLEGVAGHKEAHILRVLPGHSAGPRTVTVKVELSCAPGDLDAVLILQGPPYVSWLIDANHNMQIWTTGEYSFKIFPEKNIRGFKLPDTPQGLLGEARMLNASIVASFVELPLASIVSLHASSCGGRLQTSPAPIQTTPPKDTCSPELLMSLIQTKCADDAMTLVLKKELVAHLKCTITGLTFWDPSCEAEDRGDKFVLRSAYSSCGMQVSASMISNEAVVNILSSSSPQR

hENG(458-581)-hFc = target: T2, hENG(458-581)-hFc (human, UniProt P17813 458-581); experiment: SPR, captured hENG-hFc, soluble BMP10; '-' = Binding undetectable
T2 construct: Expressed in COS cells, not purified; not shown: linker and human IgG1 Fc domain
T2 sequence: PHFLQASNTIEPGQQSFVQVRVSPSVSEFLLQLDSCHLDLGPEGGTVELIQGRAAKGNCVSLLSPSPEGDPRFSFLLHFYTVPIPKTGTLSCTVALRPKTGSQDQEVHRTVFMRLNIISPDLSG
Method: (§1) SPR methodology was used to screen these hENG-hFc protein variants for high-affinity binding to human BMP9 and BMP10. In these experiments, captured hENG-hFc proteins were exposed to soluble BMP9 or BMP10 at 100 nM each.

hENG(26-329)-hFc = target: T3, hENG(26-329)-hFc (human, UniProt P17813 26-329); experiment: as above
T3 construct: HEK 293, purified; not shown: linker and human IgG1 Fc domain
T3 sequence: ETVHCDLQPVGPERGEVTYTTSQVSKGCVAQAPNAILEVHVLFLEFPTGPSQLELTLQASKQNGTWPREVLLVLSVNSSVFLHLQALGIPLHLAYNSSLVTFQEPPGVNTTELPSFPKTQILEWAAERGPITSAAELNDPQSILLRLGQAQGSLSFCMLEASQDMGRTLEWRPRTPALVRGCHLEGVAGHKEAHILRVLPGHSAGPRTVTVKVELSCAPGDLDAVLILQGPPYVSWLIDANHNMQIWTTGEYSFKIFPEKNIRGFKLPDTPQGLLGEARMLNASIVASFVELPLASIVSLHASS
Method: as §1

hENG(360-586)-hFc = target: T4, hENG(360-586)-hFc (human, UniProt P17813 360-586); experiment: as above
T4 construct: HEK 293, purified; not shown: linker and human IgG1 Fc domain
T4 sequence: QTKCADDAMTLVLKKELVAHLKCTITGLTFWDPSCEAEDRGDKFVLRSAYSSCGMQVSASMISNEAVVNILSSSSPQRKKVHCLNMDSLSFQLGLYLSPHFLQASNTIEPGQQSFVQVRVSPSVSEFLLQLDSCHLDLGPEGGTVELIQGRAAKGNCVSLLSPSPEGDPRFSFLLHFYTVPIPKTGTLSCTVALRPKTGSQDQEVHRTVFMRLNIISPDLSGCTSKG
Method: as §1

hENG(129-346)-hFc = target: T5, hENG(129-346)-hFc (human, UniProt P17813 129-346); experiment: as above
T5 construct: HEK 293, purified; not shown: linker and human IgG1 Fc domain
T5 sequence: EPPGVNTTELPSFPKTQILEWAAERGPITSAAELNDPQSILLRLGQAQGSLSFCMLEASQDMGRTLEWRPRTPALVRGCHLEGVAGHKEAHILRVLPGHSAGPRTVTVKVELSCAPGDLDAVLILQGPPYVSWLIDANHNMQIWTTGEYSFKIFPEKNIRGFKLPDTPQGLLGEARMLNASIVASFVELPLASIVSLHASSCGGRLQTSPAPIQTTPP
Method: as §1

hENG(61-346)-hFc = target: T6, hENG(61-346)-hFc (human, UniProt P17813 61-346); experiment: as above
T6 construct: HEK 293, purified; not shown: linker and human IgG1 Fc domain
T6 sequence: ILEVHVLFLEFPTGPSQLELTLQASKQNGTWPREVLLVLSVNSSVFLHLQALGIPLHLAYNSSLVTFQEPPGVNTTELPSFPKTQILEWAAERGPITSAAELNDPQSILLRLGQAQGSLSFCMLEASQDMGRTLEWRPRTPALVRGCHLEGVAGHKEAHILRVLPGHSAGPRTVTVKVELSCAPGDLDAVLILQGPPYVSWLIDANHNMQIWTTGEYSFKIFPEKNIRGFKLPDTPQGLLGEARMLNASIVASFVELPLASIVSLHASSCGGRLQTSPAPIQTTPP
Method: as §1

hENG(438-586)-hFc = target: T7, hENG(438-586)-hFc (human, UniProt P17813 438-586); experiment: as above
T7 construct: HEK 293, purified; not shown: linker and human IgG1 Fc domain
T7 sequence: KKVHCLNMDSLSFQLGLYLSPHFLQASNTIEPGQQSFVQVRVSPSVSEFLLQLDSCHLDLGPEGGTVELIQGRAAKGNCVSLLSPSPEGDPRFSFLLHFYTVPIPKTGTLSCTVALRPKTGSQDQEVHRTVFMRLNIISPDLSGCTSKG
Method: as §1

hENG(360-581)-hFc = target: T8, hENG(360-581)-hFc (human, UniProt P17813 360-581); experiment: as above
T8 construct: HEK 293, purified; not shown: linker and human IgG1 Fc domain
T8 sequence: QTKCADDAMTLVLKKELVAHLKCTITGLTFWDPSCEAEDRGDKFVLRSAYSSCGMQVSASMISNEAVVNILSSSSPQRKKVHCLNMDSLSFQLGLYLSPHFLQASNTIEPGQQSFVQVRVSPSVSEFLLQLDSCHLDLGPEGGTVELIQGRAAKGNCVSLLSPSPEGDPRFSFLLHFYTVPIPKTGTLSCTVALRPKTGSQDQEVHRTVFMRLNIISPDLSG
Method: as §1

hENG(166-346)-hFc = target: T9, hENG(166-346)-hFc (human, UniProt P17813 166-346); experiment: as above
T9 construct: HEK 293, purified; not shown: linker and human IgG1 Fc domain
T9 sequence: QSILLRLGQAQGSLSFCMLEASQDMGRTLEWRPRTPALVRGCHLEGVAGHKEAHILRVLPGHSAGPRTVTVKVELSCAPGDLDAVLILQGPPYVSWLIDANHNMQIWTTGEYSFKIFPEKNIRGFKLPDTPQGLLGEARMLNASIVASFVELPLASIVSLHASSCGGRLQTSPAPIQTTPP
Method: as §1

B1: BMP9 (ligand, human, UniProt Q9UK05 320-429, looked up)
chain: SAGAGSHCQKTSLRVNFEDIGWDSWIIAPKEYEAYECKGGCFFPLADDVTPTKHAIVQTLVHLKFPTKVGKACCVPTKLSPISVLYKDDMGVPTLKYHYEGMSVAECGCR
notes: also called hBMP-9; hBMP9
- Kd (hENG(26-437)-hFc): 0.019 nM
- koff (hENG(26-437)-hFc): 0.0014 s⁻¹

B2: BMP10 (ligand)
chain: NAKGNYCKRTPLYIDFKEIGWDSWIIAPPGYEAYECRGVCNYPLAEHLTPTKHAIIQALVHLKNSQKASKACCVPTKLEPISILYLDKGVVTYKFKYEGMAVSECGCR
notes: also called hBMP-10; hBMP10
- binding result (hENG(458-581)-hFc): no binding (tested: 100 nM)
- binding result (hENG(26-329)-hFc): no binding (tested: 100 nM)
- binding result (hENG(360-586)-hFc): no binding (tested: 100 nM)
- binding result (hENG(129-346)-hFc): no binding (tested: 100 nM)
- binding result (hENG(61-346)-hFc): no binding (tested: 100 nM)
- binding result (hENG(438-586)-hFc): no binding (tested: 100 nM)
- binding result (hENG(360-581)-hFc): no binding (tested: 100 nM)
- binding result (hENG(166-346)-hFc): no binding (tested: 100 nM)
